From patent US20040091503A1

Biological target: murine GM-CSF receptor (on FDC-P1 cells) (murine) (UniProt Q00941)
Assay: cell-based or functional assay

Chain of UniProt Q00941 (Q00941 30-388, chain 1 of 2): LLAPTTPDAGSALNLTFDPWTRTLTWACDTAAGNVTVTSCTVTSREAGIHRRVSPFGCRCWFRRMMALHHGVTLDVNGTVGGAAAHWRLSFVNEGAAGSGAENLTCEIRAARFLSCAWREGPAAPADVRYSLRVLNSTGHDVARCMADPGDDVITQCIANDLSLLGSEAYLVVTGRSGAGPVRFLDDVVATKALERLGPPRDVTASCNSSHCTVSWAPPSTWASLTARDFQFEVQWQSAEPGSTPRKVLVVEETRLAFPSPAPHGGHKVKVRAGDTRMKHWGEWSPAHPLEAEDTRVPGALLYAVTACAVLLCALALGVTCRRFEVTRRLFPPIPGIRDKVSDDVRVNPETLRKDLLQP
Chain of UniProt Q00941 (P26955 23-896, chain 2 of 2, further chain): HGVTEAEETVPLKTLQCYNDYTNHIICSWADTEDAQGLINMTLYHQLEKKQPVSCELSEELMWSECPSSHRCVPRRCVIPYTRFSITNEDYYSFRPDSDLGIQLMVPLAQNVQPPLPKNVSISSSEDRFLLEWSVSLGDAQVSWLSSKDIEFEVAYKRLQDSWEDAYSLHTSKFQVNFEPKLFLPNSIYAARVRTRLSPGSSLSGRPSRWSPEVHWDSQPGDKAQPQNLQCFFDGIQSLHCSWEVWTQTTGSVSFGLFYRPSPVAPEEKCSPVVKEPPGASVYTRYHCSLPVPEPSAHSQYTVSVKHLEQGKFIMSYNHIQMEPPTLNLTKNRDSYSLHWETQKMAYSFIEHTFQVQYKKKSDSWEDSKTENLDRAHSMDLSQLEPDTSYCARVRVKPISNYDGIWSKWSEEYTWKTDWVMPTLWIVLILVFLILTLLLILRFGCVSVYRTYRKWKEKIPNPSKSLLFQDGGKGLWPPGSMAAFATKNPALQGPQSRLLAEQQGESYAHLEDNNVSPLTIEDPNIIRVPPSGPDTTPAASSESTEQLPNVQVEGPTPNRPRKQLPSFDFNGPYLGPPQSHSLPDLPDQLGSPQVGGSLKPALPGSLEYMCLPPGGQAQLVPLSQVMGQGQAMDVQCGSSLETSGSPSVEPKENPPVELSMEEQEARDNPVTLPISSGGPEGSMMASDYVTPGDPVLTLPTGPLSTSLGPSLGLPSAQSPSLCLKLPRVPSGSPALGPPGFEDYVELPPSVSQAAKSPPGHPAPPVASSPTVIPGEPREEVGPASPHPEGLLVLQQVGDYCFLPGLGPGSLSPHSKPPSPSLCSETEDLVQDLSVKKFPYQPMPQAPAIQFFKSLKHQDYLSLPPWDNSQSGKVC

## GPI-GM-CSF (murine GM-CSF fused to the S. cerevesiae Gas1 GPI modification signal sequence) (from UniProt P01587 18-141; P22146 474-528) (ligand; the values are: proliferation increase over soluble GM-CSF)
  proliferation of FDC-P1 cells (Biotrak Cell Proliferation ELISA, BrdU): 25%
